Assay results taken from patent US20220267453A1 (SAITAMA MEDICAL UNIVERSITY, published 2022).

Assays:
[1] = target: T1, Human ALK2-His (Cat. #10227-H088) from Sino Biological Inc. (human, UniProt Q04771 21-123); test: ELISA of hybridoma culture supernatant on antigen immobilized at 1 µg/ml (selection of hybridomas)
T1 construct: Bought recombinant protein; also called the antigen; not shown: His tag
T1 sequence: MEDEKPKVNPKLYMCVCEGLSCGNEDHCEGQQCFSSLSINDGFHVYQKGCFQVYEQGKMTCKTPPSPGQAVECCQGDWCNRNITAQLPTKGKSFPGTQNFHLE
Procedure: One week after the cell fusion, using each culture supernatant, clones recognizing human ALK2-His used as the antigen were selected by the enzyme-linked immunosorbent assay (ELISA), and clones recognizing human ALK1-His (Sino Biological Inc.) were excluded. ELISA was performed as follows.
First, the antigen diluted to 1 μg/ml with PBS was immobilized onto a 96-well ELISA plate (NUNC, Cat. #442404) for 2 hours at room temperature or overnight at 4° C. The immobilized solution was removed, and the plate was blocked with a 0.5% skim milk solution dissolved in PBS for 30 minutes at room temperature. Next, the above-described culture supernatant of hybridomas was added, and the plate was left for 1 hour at room temperature. After the plate was washed, an ALP-labeled anti-rat IgG antibody (SAB, Inc.) diluted with a 0.5% skim milk solution to 1:2500 was added, and the plate was further left for 1 hour at room temperature. After the plate was washed, a phenyl phosphate substrate was reacted at room temperature, and then absorbance at a wavelength of 492 nm was measured.

[2] = target: T2, rat ALK2(WT)-V5-His expressed in HEK293A cells (rat, UniProt P80201 21-509); test: conclusion from BMP-specific luciferase reporter assay in transfected HEK293A cells
T2 construct: the end 509 for rat is meant as the end of the entry; also called rat wild-type ALK2; pcDEF3/rat ALK2(WT)-V5-His; not shown: V5-His tag of the pcDEF3 construct
T2 sequence: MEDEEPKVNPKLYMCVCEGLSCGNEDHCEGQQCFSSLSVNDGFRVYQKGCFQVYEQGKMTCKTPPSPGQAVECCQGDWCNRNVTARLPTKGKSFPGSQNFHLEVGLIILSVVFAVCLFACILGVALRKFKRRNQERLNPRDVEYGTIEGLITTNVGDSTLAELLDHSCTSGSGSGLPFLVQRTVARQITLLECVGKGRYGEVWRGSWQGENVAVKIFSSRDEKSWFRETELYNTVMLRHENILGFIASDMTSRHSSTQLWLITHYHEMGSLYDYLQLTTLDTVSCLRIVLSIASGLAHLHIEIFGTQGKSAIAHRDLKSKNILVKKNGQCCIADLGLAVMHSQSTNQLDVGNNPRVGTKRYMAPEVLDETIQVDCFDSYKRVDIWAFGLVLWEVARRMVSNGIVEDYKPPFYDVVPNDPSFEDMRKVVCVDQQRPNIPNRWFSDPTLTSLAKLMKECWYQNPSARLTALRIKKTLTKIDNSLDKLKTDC

[3] = target: T3, human ALK2(WT)-V5-His expressed in HEK293A cells (human, UniProt Q04771 21-509); test: as above
T3 construct: Full-length receptor overexpressed by transient transfection; also called pcDEF3/human ALK2(WT)-V5-His; human ALK2(WT)-VS-His; not shown: V5-His tag of the pcDEF3 construct
T3 sequence: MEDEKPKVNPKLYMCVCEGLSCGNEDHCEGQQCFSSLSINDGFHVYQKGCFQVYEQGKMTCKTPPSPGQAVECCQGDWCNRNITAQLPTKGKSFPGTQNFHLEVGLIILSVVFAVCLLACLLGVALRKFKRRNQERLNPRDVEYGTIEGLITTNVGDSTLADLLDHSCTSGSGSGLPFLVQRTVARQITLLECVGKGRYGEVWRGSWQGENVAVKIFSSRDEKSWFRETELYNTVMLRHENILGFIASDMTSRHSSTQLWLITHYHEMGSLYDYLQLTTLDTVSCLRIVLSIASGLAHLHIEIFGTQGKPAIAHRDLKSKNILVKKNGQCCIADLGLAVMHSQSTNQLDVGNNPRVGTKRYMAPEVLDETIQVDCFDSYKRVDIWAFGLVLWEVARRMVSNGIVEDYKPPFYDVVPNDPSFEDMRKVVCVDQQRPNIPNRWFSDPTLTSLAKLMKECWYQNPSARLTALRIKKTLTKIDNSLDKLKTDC

[4] = target: T4, mouse ALK2(WT)-V5-His expressed in HEK293A cells (mouse, UniProt P37172 21-509); test: as above
T4 construct: Full-length receptor overexpressed by transient transfection; also called pcDEF3/mouse ALK2(WT)-V5-His; not shown: V5-His tag of the pcDEF3 construct
T4 sequence: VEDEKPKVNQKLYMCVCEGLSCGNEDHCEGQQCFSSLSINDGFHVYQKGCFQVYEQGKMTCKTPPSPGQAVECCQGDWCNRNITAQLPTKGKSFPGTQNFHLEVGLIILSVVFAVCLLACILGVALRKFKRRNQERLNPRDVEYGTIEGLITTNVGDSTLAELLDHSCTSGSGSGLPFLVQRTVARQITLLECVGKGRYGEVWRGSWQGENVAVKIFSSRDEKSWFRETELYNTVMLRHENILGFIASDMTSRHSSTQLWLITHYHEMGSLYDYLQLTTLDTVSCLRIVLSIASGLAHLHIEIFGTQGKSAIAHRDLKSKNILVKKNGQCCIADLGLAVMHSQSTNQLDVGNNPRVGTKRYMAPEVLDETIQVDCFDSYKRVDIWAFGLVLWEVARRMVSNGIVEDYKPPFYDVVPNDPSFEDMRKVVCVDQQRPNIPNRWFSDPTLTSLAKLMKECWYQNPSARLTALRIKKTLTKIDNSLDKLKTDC

[5] = target: T5, ALK2 expressed in mice (C57BL/6 mouse newborn organs, tissue sections) (mouse, UniProt P37172 21-509); test: immunohistological staining of frozen sections of mouse newborns; 10 µg/ml primary antibody
T5 construct: Endogenous protein in paraformaldehyde-fixed frozen or paraffin sections of mouse newborns; not a purified protein; also called mouse ALK2 (endogenous)
T5 sequence: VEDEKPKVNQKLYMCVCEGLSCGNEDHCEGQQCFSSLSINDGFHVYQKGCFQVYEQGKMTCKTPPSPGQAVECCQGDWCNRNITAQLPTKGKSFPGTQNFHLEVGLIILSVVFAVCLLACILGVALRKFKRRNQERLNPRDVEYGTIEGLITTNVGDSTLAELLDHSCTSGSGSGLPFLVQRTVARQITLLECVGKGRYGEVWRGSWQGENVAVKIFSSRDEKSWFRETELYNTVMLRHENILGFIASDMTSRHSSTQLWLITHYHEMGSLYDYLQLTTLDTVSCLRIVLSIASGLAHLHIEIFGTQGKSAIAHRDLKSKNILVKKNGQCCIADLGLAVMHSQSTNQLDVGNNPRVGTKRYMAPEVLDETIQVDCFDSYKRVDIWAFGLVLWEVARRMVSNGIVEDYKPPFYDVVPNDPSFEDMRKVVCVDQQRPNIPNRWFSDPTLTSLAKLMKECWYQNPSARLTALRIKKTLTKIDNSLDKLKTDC
Procedure: C57BL/6 mouse newborns were each fixed in a 4% paraformaldehyde-phosphate buffer solution for 2 days and then freeze-embedded in O.C.T Compound (manufactured by Sakura Finetek Japan Co., Ltd.), and frozen sections were prepared with a thickness of 5 μm using a cryostat (manufactured by Leica Biosystems Nussloch GmbH, Cat. #CM3050S). The sections were washed with PBS three time and reacted with an endogenous enzyme activity blocking solution (manufactured by Vector Laboratories, Inc., Cat. #SP-6000) for 10 minutes. […] On the following day, the sections were washed with PBS-T three times and reacted with HRP-conjugated anti-rat IgG antibody ImmPRESS Reagent (manufactured by Vector Laboratories, Inc., Cat. #MP-7444) as a secondary antibody for 30 minutes at 37° C. Then, the sections were washed with PBS-T three times, and DAB color development (manufactured by Vector Laboratories, Inc., Cat. #SK-4100) was performed. After washing with distilled water, the sections were counter-stained with hematoxylin, mounted on a glass cover according to a standard method, and observed under BZ-9000 (manufactured by Keyence Corp.).

[6] = target: T6, human ALK2-EGFP expressed in HEK293A cells (human, UniProt Q04771 21-509); test: conclusion from flow cytometry competition with labeled A2-27D on HEK293A cells expressing human ALK2-EGFP
T6 construct: also called pcDEF3/human ALK2-EGFP; not shown: EGFP fused to ALK2
T6 sequence: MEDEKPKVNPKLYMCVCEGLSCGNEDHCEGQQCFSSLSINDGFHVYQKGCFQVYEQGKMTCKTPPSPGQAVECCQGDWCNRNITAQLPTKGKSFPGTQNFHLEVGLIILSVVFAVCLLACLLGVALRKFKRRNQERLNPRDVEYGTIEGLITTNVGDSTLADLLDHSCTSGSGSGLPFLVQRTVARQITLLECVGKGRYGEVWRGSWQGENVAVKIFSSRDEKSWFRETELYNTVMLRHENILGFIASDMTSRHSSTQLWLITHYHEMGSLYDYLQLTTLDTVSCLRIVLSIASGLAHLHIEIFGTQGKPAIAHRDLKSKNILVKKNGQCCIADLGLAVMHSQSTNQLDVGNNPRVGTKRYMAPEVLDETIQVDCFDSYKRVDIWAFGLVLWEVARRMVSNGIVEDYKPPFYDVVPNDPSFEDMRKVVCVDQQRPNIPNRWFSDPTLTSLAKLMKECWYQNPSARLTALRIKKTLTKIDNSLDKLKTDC
Procedure: In the same manner as in Example 3, HEK293A cells were transiently transfected with pcDEF3/human ALK2-EGFP using Lipofectamine 2000 (manufactured by Thermo Fisher Scientific Inc.). After 2.5 hours, the medium was replaced with fresh 10% FBS-containing DMEM medium, and the cells were cultured overnight. On the following day, […] each of the cell suspensions adjusted to 1×10⁶ cells/mL was dispensed into a 1.5-mL microfuge and centrifuged at 500 g for 5 minutes, and then the supernatant was removed. To the cells, 100 μL of a mixed solution of Alexa fluor 647-labeled A2-27D diluted to 1 μg/mL and 10 μg/mL purified IgG was added, and the cells were left for 30 minutes at 4° C. After the cells were washed with PBS three times, fluorescence was detected by a flow cytometer (BD Accuri C6; manufactured by BD Biosciences). The intensity of EGFP expressed by the cells and the fluorescence intensity of stained Alexa flour 647 were plotted.

Measured: binding result

B1: rat anti-human ALK2 monoclonal antibody produced by the hybridoma #109 (antibody, V domains shown)
VH: EVQLVESGGDLVQPGRSMKLSCAASGFTFSNYGMAWVRQAPTKGLEWVATISYDGSGTYYRDSVEGRFTISRDNAKITLYLQMNSLRSEDTATYYCTRHGYSRVPYFDYWGQGVMVTVSS
VL: NIVLTQSPATLSVTPGESVSLSCRASQSISTNIHWYQQKSNESPRLLIKYASQSISGIPSRFSGSGSGTDFTLTINRVESEDFSIYYCQQSYSSQLTFGSGTKLEIKR
notes: Rat monoclonal antibody from a hybridoma
binds: [1]

B2: rat anti-human ALK2 monoclonal antibody produced by the hybridoma #200 (antibody, V domains shown)
VH: QVKLLQSGAALVKPGDSIRMSCKASGYTFTDYIIHWVKQSHGKSLEWIGYINPYSGGTNYNEKFKSKATLTVDKSSSTAYMEFCRLTSEDSAIYYCVRRGHDGTGFDYWGQGVMVTVSS
VL: DVVMTQTPVSLPVSLGGQASISCRSSQSLVHSNGETYLHWYLQKPGQSPQLLIYRVSNRFSGVPDRFSGSGSGTDFTLKLSRVEPEDLGDYYCLQSTHLPLTFGSGTKLEIKR
notes: Rat monoclonal antibody from a hybridoma; also called clone #200; ALK2_#200
binds: [2] | [3] | [4] | [5] | [1] | [6]
